Results on two molecules are retold here after patent publication US20200270318A1.

No end group written: not given here.

For the assay, the target named is human PAC1 receptor with 3 hemagglutinin (HA) tags, expressed in Chinese Hamster Ovary (CHO) cells (human), P41586. In words: cell-based or functional assay.
human PAC1 receptor with 3 hemagglutinin (HA) tags, expressed in Chinese Hamster Ovary (CHO) cells (human), P41586, sequence (P41586 21-468): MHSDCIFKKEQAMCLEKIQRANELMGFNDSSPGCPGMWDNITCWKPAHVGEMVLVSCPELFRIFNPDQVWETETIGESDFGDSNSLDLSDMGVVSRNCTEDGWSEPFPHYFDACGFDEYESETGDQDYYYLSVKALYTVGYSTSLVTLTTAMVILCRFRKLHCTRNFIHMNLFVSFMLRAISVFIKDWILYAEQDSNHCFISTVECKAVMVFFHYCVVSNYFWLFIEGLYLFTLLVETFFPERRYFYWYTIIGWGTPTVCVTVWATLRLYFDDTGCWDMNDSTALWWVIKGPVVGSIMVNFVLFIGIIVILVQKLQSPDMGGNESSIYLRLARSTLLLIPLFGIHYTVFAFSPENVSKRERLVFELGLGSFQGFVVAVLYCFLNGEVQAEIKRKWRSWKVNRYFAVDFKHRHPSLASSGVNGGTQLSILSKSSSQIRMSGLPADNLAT

Regarding HSDGIFTDSYSRYRKQMAVKKYLAAVL-NH2 [PACAP1-27], the EMax (%), calcium flux (FLIPR), agonist mode, PAC1-CHO cells is 100%.

Turning to FTDSYSRYRKQMAVKKYLAAVLGKRYKQRVKNY-NH2 [PACAP6-38], the IC50 (nM), antagonist mode (variable concentration) versus 5 nM PACAP1-27, calcium flux (FLIPR), PAC1-CHO cells is above 333 nM; the IMax (%), antagonist mode (variable concentration) versus 5 nM PACAP1-27; ( )=% inhibition at highest concentration came to 78.8%; the pA2 (nM), antagonist mode (fixed concentration), Gaddum/Schild EC50 shift of PACAP1-27 curves, calcium flux (FLIPR), PAC1-CHO cells stood at 201 nM.
